The values that follow come from patent US20250034601A1, “HETERODIMERIC BENZALDEHYDE SYNTHASE, METHODS OF PRODUCING, AND USES THEREOF” (Purdue Research Foundation, priority 2021, published 2025).

Substrate in the data set: CC(C)(COP(=O)(O)OP(=O)(O)OC[C@H]1O[C@@H](n2cnc3c(N)ncnc32)[C@H](O)[C@@H]1OP(=O)(O)O)[C@@H](O)C(=O)NCCC(=O)NCCSC(=O)c1ccccc1
In words: purified protein, by the assay type. The note with it: other: apparent, measured at 4 mM NADPH, pH 6.5, 28° C. The data set is classed as biochemical, Arabidopsis thaliana.

Procedure: The reaction was initiated by adding a protein and incubated at 28° C. for 30 minutes, and the reactions were then terminated by adding 100 μL of 100% ice-cold methanol (MeOH). The BS enzyme assays were performed at an appropriate enzyme concentration so that reaction velocity was proportional to enzyme concentration and linear during the incubation time period. Km and Vmax were determined by non-linear fit to the Michaelis-Menten equation using Graphpad Prism, v8.2.0.
Triplicate assays were performed for all data points.
After centrifugation at 15,000 g for 20 minutes, 5 μL of the supernatant were subjected to high-performance liquid chromatography (HPLC) analysis using an Agilent 1260 Infinity II system (Agilent Technologies, Inc., Santa Clara, CA) equipped with an InfinityLab Poroshell 120 EC-C18 column (3.0×150 mm, 2.7 μm) maintained at 35° C. Products were separated with a 15-minute linear gradient of 10% aqueous acetonitrile solution to 100% acetonitrile and monitored at 248 nm using a diode array detector (DAD). Benzaldehyde was identified by comparing the retention time and absorption spectrum with authentic standard.
Quantitation was achieved by using standard curve generated from authentic standard and product verification was performed by GC-MS.
Recombinant BS proteins were produced in E. coli by expressing the corresponding coding regions (CDS) subcloned into an expression vector pMAL-c5X (New England BioLabs, Ipswich, MA) containing a maltose binding protein (MBP) tag using ClonExpress II One Step Cloning Kit (Vazyme Biotech Co., Piscataway, NJ).
After sequence verification, the desired plasmids were transformed into Rosetta2 (DE3) pLysS competent cells (MilliporeSigma, Burlington, MA). Single colonies were picked and cultured overnight in 2 ml LB medium containing 100 mg/L carbenicillin and 34 mg/L chloramphenicol at 37° C. Overnight cultures were then diluted 100-fold with LB medium and continued to culture at 37° C. until OD600 reached ˜0.5.
After cooling the cell culture on ice for 10 minutes, isopropyl β-D-1-thiogalactopyranoside (IPTG) was added to a final concentration of 0.1 mM and cells were incubated at 28° C. with shaking for additional 2.5 to 3 hours. After harvesting cells by centrifugation, their lysis and protein purification were performed according to the manufacturer's protocol of Amylose Resin (New England Biolabs, Ipswich, MA).

B1: Arabidopsis thaliana benzaldehyde synthase (AtBS), recombinant heterodimer AtBSα (SEQ ID NO: 5) / AtBSβ (SEQ ID NO: 8), wild type, MBP-tagged (Arabidopsis … (protein)
chain 1: MSNHQTQVLKLLEPWCELKDKVVLVTGASSGIGREICLDLAKAGCQVIAAARRVDRLNSLCSEINSFSSTGIQAAALELDVSSDAATIQKAVREAWDIFGKIDALINNAGIRGNVKSSLDLSEDEWDNVFKTNLKGPWLVSKHVCMLMRDAKRGGSVINISSIAGIRGMLPGGLAYACSKGGVDTMSRMMALELGVHKIRVNSIAPGLFKSEITQGLMQKEWLKNVTERTVPLKVQQTVDPGLTSLVRYLIHDSSQYISGNTYIVDSGATLPGVPIFSSL
chain 2: MENPAKRVLMTSNGDEVSRNIAFHLAKHGCKLVMMGNEGSLRSIVDKIRDSIEGAFPADVIALDMESDSEVAFHAAVQKAWELSGHFDAFLNSYTYQGKVQDILQVSQDEFHRITKINLTAPWFLLKAVATRMKDHGSGGSIVFMATIASGERALYPGADAYASTSAAIHQLVRASAMSLGKHKIRVNMISRGLHLDDEYTASVGRDRAQKLVKDAAPLGQWLNPDTDLYSTVIYLISDGSRFMTGTTVLVDGAQSLTRPRLKSYM
notes: full-length CDS from flower cDNA
One may read the Km as the concentration of substrate that gives half-maximal velocity. As usually defined, the Vmax is the rate approached at saturating substrate. Broadly, the kcat is the number of substrate molecules converted per active site and unit of time at saturation. By kcat/Km is commonly meant the second-order rate constant that governs catalysis at low substrate concentration. As to B1, the Km amounted to 242.8 ± 28.2 µM, the Vmax worked out at 0.864 µmol/min/mg, the kcat was 2.12 ± 0.08 s⁻¹ and the kcat/Km was 8700 ± 1100 M⁻¹ s⁻¹.
